B1: PS389: ClpS protein, SEQ ID NO: 17 (protein)
chain: MLNSAAFKAASASPVIAPERSGQVTQKPYPTYKVIVLNDDFNTFQHVHDCLVKYIPGMTSDRAWQLTHQVHNDGQAIVWVGPQEQAELYHQQLSRAGLTMAPIEAA
B2: PS368: ClpS protein, SEQ ID NO: 1 (protein)
chain: MASAPSTTLDKSTQVVKKTYPNYKVIVLNDDLNTFDHVANCLIKYIPDMTTDRAWELTNQVHYQGQAIVWTGPQEQAELYHQQLRREGLTMAPLEAA
B3: PS393: ClpS protein, SEQ ID NO: 21 (protein)
chain: MSDEDGEDGDENAVGIATRTRTRTKKPTPYRVLLLNDDYTPMEFVVLVLQRFFRMSIEDATRVMLQVHQKGVGVCGVFTYEVAETKVSQVIDFARQNQHPLQCTLEKA
B4: PS378: ClpS protein, SEQ ID NO: 11 (protein)
chain: MXPQEVEEVSFLESKEHEIVLYNDDVNTFDHVIECLVKICNHNYLQAEQCAYIVHHSGKCGVKTGSLEELIPKCNALLEEGLSAEVI
modifications: not fully specified; X: residue not identified in the source
B5: PS395: ClpS protein, SEQ ID NO: 23 (protein)
chain: MTVSQSKTQGAPAAQSATELEYEGLWRVVVLNDPVNLMSYVVLVFKKVFGFDETTARKHMLEVHEQGRSVVWSGMREKAEAYAFTLQQWHLTTVLEQDEVR
B6: PS394: ClpS protein, SEQ ID NO: 22 (protein)
chain: MAERRDTGDDEGTGLGIATKTRSKTKKPTPYRVLMLNDDYTPMEFVVLCLQRFFRMNMEEATRVMLHVHQKGVGVCGVFSYEVAETKVGQVIDFARANQHPLQCTLEKA
B7: PS392: ClpS protein, SEQ ID NO: 20 (protein)
chain: MSVEIIEKRSTVRKLAPRYRVLLHNDDFNPMEYVVQTLMATVPSLTQPQAVNVMMEAHTNGMGLVIVCALEHAEFYAETLNNHGLGSSIEPDD
B8: PS388: ClpS protein, SEQ ID NO: 16 (protein)
chain: MVTTLSADVYGMATAPTVAPERSNQVVRKTYPNYKVIVLNDDFNTFQHVAECLMKYIPGMSSDRAWDLTNQVHYEGQAIVWVGPQEPAELYHQQLRRAGLTMAPLEAA
B9: Plasmodium falciparum ClpS: ClpS protein, SEQ ID NO: 110 (protein, listed as Plasmodium falciparum)
chain: MFKDLKPFFLCIILLLLLIYKCTHSYNIKNKNCPLNFMNSCVRINNVNKNTNISFPKELQKRPSLVYSQKNFNLEKIKKLRNVIKEIKKDNIKEADEHEKKEREKETSAWKVILYNDDIHNFTYVTDVIVKVVGQISKAKAHTITVEAHSTGQALILSTWKSKAEKYCQELQQNGLTVSIIHESQLKDKQKK
B10: PS391: ClpS protein, SEQ ID NO: 19 (protein)
chain: MGQTVEKPRVEGPGTGLGGSWRVIVRNDDHNTFDHVARTLARFIPGVSLERGHEIAKVIHTTGRAVVYTGHKEAAEHYWQQLKGAGLTMAPLEQG
B11: PS382: ClpS protein, SEQ ID NO: 15 (protein)
chain: MSDSPVIKEIKKDNIKEADEHEKKEREKETSAWKVILYNDDIHNFTYVTDVIVKVVGQISKAKAHTITVEAHSTGQALILSTWKSKAEKYCQELQQNGLTVSIIHESQLKDKQKK
B12: Escherichia coli ClpS M40A: ClpS protein, SEQ ID NO: 109 (protein, listed as Escherichia coli)
chain: MGKTNDWLDFDQLAEEKVRDALKPPSMYKVILVNDDYTPAEFVIDVLQKFFSYDVERATQLMLAVHYQGKAICGVFTAEVAETKVAMVNKYARENEHPLLCTLEKA
B13: PS380: ClpS protein, SEQ ID NO: 13 (protein)
chain: MGDIYGESNPEEVSCIDSLSEEGNELILFNDNIHTFEYVIDCLVAICSLSYEQASNCAYIVDRKGLCTVKHGSYDELLIMYHALVEKDLKVEIR
B14: PS390: ClpS protein, SEQ ID NO: 18 (protein)
chain: MLSIAAVTEAPSKGVQTADPKTVRKPYPNYKVIVLNDDFNTFQHVSSCLLKYIPGMSEARAWELTNQVHFEGLAVVWVGPQEQAELYYAQLKNAGLTMAPPEPA
B15: Saccharomyces cerevisiae GID10: SEQ ID NO: 125 (protein, listed as Saccharomyces cerevisiae)
chain: MTSLNIMGRKFILERAKRNDNIEEIYTSAYVSLPSSTDTRLPHFKAKEEDCDVYEEGTNLVGKNAKYTYRSLGRHLDFLRPGLRFGGSQSSKYTYYTVEVKIDTVNLPLYKDSRSLDPHVTGTFTIKNLTPVLDKVVTLFEGYVINYNQFPLCSLHWPAEETLDPYMAQRESDCSHWKRFGHFGSDNWSLTERNFGQYNHESAEFMNQRYIYLKWKERFLLDDEEQENQMLDDNHHLEGASFEGFYYVCLDQLTGSVEGYYYHPACELFQKLELVPTNCDALNTYSSGFEIA
B16: PS507: UBR-box domain homolog, SEQ ID NO: 135 (protein, listed as Sparassis crispa)
chain: MPCGHIFKKGESCFRCKDCALDDSCVLCSKCFEATDHANHNVSFFIAQQSGGCCDCGDIEAWLVPIDCPFHPV
B17: PS501: UBR-box domain homolog, SEQ ID NO: 129 (protein, listed as Amanita thiersii)
chain: MICGQIIGKGESCFRCRDCGLDESCVMCSQCFHATDHINHNVSFFVSQQPGGCCDCGDEEAWKKPMNCPYHPP
B18: PS503: UBR-box domain homolog, SEQ ID NO: 131 (protein, listed as Hydra vulgaris)
chain: MFCGRLFKVGDPTYTCKDCAADPTCVFCHDCFHQSVHTKHKYKLFASQGRGGYCDCGDKEAWTNDPACNKHKE
B19: PS502: UBR-box domain homolog, SEQ ID NO: 130 (protein, listed as Helobdella robusta)
chain: MVCLKVFKLGEPTYSCRSVTCGMDPTCVLCVDCFQNSSHKLHKYKMSTSGGGGYCDCGDLEAWKADPLCDLHKL
B20: PS504: UBR-box domain homolog, SEQ ID NO: 132 (protein, listed as Galleria mellonella)
chain: MLCGKVFKQGEPAYSCRECGMDNTCVLCVECFKVSPHRHHKYKMGQSGGGGCCDCGDTEAWKRDPFCERHAK
B21: PS506: UBR-box domain homolog, SEQ ID NO: 134 (protein, listed as Capitella teleta)
chain: MLCGKVFKMGELTYSCRDCGTDPTCVLCMDCFQHSAHKKHRYKMAASGGGGYCDCGDREAWKAEPFCDVHKR

System: amino acid at a terminal position of a polypeptide
Assay: Amino acid binding preference of recognition proteins (Tables 1 and 2)
Conditions: Table 1, ClpS proteins; amino acid identity at a terminal position of a polypeptide; inferred from literature and/or demonstrated by the inventors
Description: It should be appreciated that these sequences and other examples described herein are meant to be non-limiting, and recognition molecules in accordance with the application can include any homologs, variants thereof, or fragments thereof minimally containing domains or subdomains responsible for peptide recognition.
In the case of B1, the “Binding Pref.” value is reported as “F, Y, L”. For B2, the “Binding Pref.” value was “F, Y, W, L”. In the case of B3, the “Binding Pref.” value is reported as “F, Y, W, L”. With B4 the “Binding Pref.” value was “F, Y, W, L”. In the case of B5, the “Binding Pref.” value is reported as “F, Y, W, L”. For B6, the “Binding Pref.” value was “F, Y, W, L”. In the case of B7, the “Binding Pref.” value is reported as “F, Y, W”. For B8, the “Binding Pref.” value was “F, Y, L”. For B9, the “Binding Pref.” value was “F, W, Y, L”. For B10, the “Binding Pref.” value was “F, Y, W, L”. In the case of B11, the “Binding Pref.” value is reported as “F, Y, W, L”. In the case of B12, the “Binding Pref.” value is reported as “F, W, Y, L”. In the case of B13, the “Binding Pref.” value is reported as “F, W”. With B14 the “Binding Pref.” value was “F, Y, L”.

System: amino acid at a terminal position of a polypeptide
Assay: not given
Conditions: Table 2; amino acid identity at a terminal position (phosphotyrosine also internal); inferred from literature and/or demonstrated by the inventors; cited from earlier work
For B15, the “Binding Pref.” value is listed as “P, M, V”. For B16, the “Binding Pref.” value is given as “K, R, H”. In the case of B17, the “Binding Pref.” value is given as “K, R, H”. In the case of B18, the “Binding Pref.” value is given as “K, R, H”. For B19, the “Binding Pref.” value is given as “K, R, H”. In the case of B20, the “Binding Pref.” value is given as “K, R, H”. For B21, the “Binding Pref.” value is given as “K, R, H”.

From US12065466B2, “Methods and compositions for protein sequencing” (Quantum-Si Incorporated, priority 2020, dated 2024)
